We go through 15 molecules from patent US20190300590A1 (PROTAGONIST THERAPEUTICS, published 2019).

Usually IC50 stands for the midpoint of a concentration-inhibition curve. Low values mean greater potency in that assay, high ones weaker potency in that assay.

Where two headings read alike, the source gives them in different places. Bridges are numbered along the chain shown (N, C = ends). [ ]: non-standard residue; d: D form. 2Nal = N[C@@H](Cc1ccc2ccccc2c1)C(=O)O; AEF = NCCOc1ccc(C[C@H](N)C(=O)O)cc1; hLeu = CC(C)CC[C@H](N)C(=O)O; Abu = CC[C@H](N)C(=O)O; Ac4c = NC1(C(=O)O)CCC1; Ac3c = NC1(C(=O)O)CC1; Aib = CC(C)(N)C(=O)O

Experiment [1] deals with T1, Rat IL-23R_huFC (rat, UniProt F1LX96 39-369).
T1 sequence: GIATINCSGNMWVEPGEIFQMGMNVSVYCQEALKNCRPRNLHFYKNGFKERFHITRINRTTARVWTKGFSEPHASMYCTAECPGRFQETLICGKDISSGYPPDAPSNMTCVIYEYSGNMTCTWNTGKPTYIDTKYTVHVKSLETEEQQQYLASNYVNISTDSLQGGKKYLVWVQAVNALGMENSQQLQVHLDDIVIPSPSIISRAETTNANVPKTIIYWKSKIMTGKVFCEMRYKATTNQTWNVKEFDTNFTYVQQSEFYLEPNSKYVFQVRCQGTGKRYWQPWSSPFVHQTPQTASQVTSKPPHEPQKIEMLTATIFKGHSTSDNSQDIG
The experiment is described as follows: rat IL-23R competitive binding ELISA. In general terms: An ELISA detects its analyte on a solid surface through an enzyme-linked reagent.

The target in experiment [2] is T2, IL-23R on human cells (IL-23R-expressing DB cells; human NK cells) (human, UniProt Q5VWK5 24-629).
T2 sequence (looked up): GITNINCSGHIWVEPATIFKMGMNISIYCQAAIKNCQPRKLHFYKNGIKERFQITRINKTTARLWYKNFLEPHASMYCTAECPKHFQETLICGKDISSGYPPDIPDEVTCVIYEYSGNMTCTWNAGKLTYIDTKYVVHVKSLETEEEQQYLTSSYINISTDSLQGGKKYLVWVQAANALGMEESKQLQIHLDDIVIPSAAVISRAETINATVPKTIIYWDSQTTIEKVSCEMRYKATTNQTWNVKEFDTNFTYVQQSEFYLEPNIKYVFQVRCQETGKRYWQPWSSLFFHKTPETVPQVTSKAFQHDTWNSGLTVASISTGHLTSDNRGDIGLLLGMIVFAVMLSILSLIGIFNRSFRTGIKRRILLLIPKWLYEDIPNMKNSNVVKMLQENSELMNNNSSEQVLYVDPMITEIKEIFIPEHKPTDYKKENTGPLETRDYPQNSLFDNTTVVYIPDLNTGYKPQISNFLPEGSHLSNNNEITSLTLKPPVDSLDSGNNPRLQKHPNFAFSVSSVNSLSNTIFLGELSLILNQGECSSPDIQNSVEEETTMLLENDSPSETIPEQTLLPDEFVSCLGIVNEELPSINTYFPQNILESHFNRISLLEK
The experiment is described as follows: cell-based or functional assay.

The target in experiment [3] is T2, IL-23R on human cells …. Kind of experiment: cell-based or functional assay. The source holds these as a separate data set.
The next experiment deals with T3, IL-23R on DB cells (human, UniProt Q5VWK5 24-629).
T3 sequence (looked up): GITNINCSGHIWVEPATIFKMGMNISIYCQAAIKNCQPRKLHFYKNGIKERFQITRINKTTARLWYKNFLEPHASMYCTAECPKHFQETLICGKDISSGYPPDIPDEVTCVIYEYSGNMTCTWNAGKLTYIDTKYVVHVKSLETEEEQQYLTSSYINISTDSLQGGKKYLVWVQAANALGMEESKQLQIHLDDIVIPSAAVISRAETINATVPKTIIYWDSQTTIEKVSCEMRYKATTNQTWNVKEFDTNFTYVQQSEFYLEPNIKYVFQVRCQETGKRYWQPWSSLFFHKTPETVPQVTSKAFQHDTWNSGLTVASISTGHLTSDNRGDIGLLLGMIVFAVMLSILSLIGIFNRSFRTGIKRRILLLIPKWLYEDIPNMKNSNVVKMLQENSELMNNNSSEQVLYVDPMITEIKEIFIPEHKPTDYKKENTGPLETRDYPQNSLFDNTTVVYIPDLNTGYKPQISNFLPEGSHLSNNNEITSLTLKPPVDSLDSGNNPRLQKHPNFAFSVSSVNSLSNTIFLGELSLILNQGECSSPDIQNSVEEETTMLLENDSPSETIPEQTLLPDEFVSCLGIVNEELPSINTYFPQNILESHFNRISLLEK
The experiment is described as follows: cell-based or functional assay.

Another experiment addresses T4, IL23R_huFC (human, UniProt Q5VWK5 24-353).
T4 sequence (looked up): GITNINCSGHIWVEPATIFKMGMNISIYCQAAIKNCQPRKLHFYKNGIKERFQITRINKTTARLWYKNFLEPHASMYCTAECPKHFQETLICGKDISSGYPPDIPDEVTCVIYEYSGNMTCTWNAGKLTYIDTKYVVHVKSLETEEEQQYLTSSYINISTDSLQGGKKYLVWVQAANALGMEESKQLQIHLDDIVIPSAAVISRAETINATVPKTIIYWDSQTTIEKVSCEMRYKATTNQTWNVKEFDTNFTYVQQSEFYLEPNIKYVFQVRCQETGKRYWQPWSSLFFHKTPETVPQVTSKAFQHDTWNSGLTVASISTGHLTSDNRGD
The experiment is described as follows: IL23-IL23R competitive binding ELISA.

Experiment [4] addresses T1, Rat IL-23R_huFC. The experiment is described as follows: rat IL-23R competitive binding ELISA. This is another data set of the same source.

B1: Ac-CQTWQCYW-[α-MeOrn]-ENG-NH2 (peptide)
peptide: CQTWQCYWXENG
modifications: Ac; α-MeOrn; NH2
Take B1: in the experiment with Rat IL-23R_huFC [1], the half-inhibitory concentration (IC50) worked out at 64 nM.

B2: Ac-CQTWQCYW-[hLeu]-EPG-NH2 (peptide)
peptide: Ac-CQTWQCYW[hLeu]EPG-NH2
modifications: not fully specified (bridges); cysteine pairing not given here
As to B2, the IC50 in the experiment with Rat IL-23R_huFC [1] was 140 nM.

B3: Ac-CTTWQCYW-[Leu]-ENG-NH2 (peptide)
peptide: Ac-CTTWQCYW[hLeu]ENG-NH2
modifications: disulfide 1-6 (inferred)
Molecule B3 displayed an IC50 with Rat IL-23R_huFC [1] of 28 nM.

B4: Ac-CQTWQCYW-[hLeu]-[Lys(Ac)]-NG-NH2 (peptide)
peptide: Ac-CQTWQCYW[hLeu]K(Ac)NG-NH2
modifications: cysteine pairing not given here
In the experiment with Rat IL-23R_huFC [1], B4 returned an IC50 of 32 nM.

B5: Ac-CRTWQCYWSEFGTGE-NH2 (peptide)
peptide: Ac-CRTWQCYWSEFGTGE-NH2
modifications: disulfide 1-6
SMILES: CC(=O)N[C@H]1CSSC[C@@H](C(=O)N[C@@H](Cc2ccc(O)cc2)C(=O)N[C@@H](Cc2c[nH]c3ccccc23)C(=O)N[C@@H](CO)C(=O)N[C@@H](CCC(=O)O)C(=O)N[C@@H](Cc2ccccc2)C(=O)NCC(=O)N[C@H](C(=O)NCC(=O)N[C@@H](CCC(=O)O)C(N)=O)[C@@H](C)O)NC(=O)[C@H](CCC(N)=O)NC(=O)[C@H](Cc2c[nH]c3ccccc23)NC(=O)[C@H]([C@@H](C)O)NC(=O)[C@H](CCCNC(=N)N)NC1=O
Regarding B5, in the experiment with Rat IL-23R_huFC [1], the IC50 is 778 nM.

B6: Ac-CSTWQCYWSKQSGGS-NH2 (peptide)
peptide: Ac-CSTWQCYWSKQSGGS-NH2
modifications: disulfide 1-6
SMILES: CC(=O)N[C@H]1CSSC[C@@H](C(=O)N[C@@H](Cc2ccc(O)cc2)C(=O)N[C@@H](Cc2c[nH]c3ccccc23)C(=O)N[C@@H](CO)C(=O)N[C@@H](CCCCN)C(=O)N[C@@H](CCC(N)=O)C(=O)N[C@@H](CO)C(=O)NCC(=O)NCC(=O)N[C@@H](CO)C(N)=O)NC(=O)[C@H](CCC(N)=O)NC(=O)[C@H](Cc2c[nH]c3ccccc23)NC(=O)[C@H]([C@@H](C)O)NC(=O)[C@H](CO)NC1=O
Turning to B6, in the experiment with Rat IL-23R_huFC [1], the IC50 amounted to 204 nM.

B7: Ac-Cyclo-[[Abu]-QTWQC]-[Phe[4-(2-aminoethoxy)]]-[2-Nal]-]Acpc]-ENN-NH2 (peptide)
peptide: Ac-[Abu]QTWQC[AEF][2Nal][Ac3c]ENN-NH2
modifications: thioether 1-6
Take B7: the “NK cell assay IC50 (IFNγ)” value in experiment [2] was < 25 nM.

B8: Ac-CSTWECYWHTYG-NH2 (peptide)
peptide: Ac-CSTWECYWHTYG-NH2
modifications: disulfide 1-6
Take B8: in the experiment with Rat IL-23R_huFC [1], the IC50 is 286 nM.

B9: Ac-CQTWQCYW-[Aib]-ENG-NH2 (peptide)
peptide: Ac-CQTWQCYW[Aib]ENG-NH2
modifications: disulfide 1-6 (inferred)
On to B9, for which the IC50 with Rat IL-23R_huFC [1] is 34 nM.

B10: Ac-CQTWQCYW-[hLeu]-ENGG-NH2 (peptide)
peptide: Ac-CQTWQCYW[hLeu]ENGG-NH2
modifications: cysteine pairing not given here
Consider B10, for which, in the experiment with Rat IL-23R_huFC [1], the IC50 came out at 140 nM.

B11: Ac-CRTWQCYWLRLGDEG-NH2 (peptide)
peptide: Ac-CRTWQCYWLRLGDEG-NH2
modifications: disulfide 1-6 (inferred)
In the case of B11, the IC50 with Rat IL-23R_huFC [1] turned out to be 483 nM.

B12: Ac-FCQTWQCYW-[hLeu]-ENG-NH2 (peptide)
peptide: Ac-FCQTWQCYW[hLeu]ENG-NH2
modifications: cysteine pairing not given here
With B12, the IC50 with Rat IL-23R_huFC [1] was determined as 25 nM.

B13: Ac-LCQTWQCYW-[hLeu]-ENG-NH2 (peptide)
peptide: Ac-LCQTWQCYW[hLeu]ENG-NH2
modifications: cysteine pairing not given here
Regarding B13, the IC50 with Rat IL-23R_huFC [1] turned out to be 26 nM.

B14: Ac-Cyclo-[[Abu]-QTWQC]-[Phe[4-(2-aminoethoxy)]]-[2-Nal]-[Acbc]-ENN-NH2 (peptide)
peptide: Ac-[Abu]QTWQC[AEF][2Nal][Ac4c]ENN-NH2
modifications: thioether 1-6
On to B14, for which, in experiment [2], the “NK cell assay IC50 (IFNγ)” value is < 25 nM. Also, in experiment [3], the “pStat3 HTRF IC50” value was < 10 nM.

B15: Ac-[Pen]-QTWQ-[Pen]-Y-[2-Nal]-[α-MeLys]-ENG-NH2 (peptide)
peptide: XQTWQXYXKENG
modifications: Ac; Pen-Pen disulfide; 2-Nal; α-MeLys; NH2
As for B15, in the experiment with IL-23R on DB cells, the “pStat3 HTRF IC50” value is < 10 nM. The IC50 with IL23R_huFC lay within 25 to 100 nM; with Rat IL-23R_huFC [4] it was 100 to 1000 nM.
